# Results as given in the DeepSol protein solubility set.
# Test: soluble on expression in E. coli; label from the status in PepcDB or PDB records
row,Sequence,soluble on expression in E. coli
1,MWNMLIVAMCLALLGCLQAQELQGHVSIILLGATGDLAKKYLWQGLFQLYLDEAGRGHSFSFHGAALTAPKQGQELMAKALESLSCPKDMAPSHCAEHKDQFLQLSQYRQLKTAEDYQALNKDIEAQLQHAGLREAGRIFYFSVPPFAYEDIARNINSSCRPGPGAWLRVVLEKPFGHDHFSAQQLATELGTFFQEEEMYRVDHYLGKQAVAQILPFRDQNRKALDGLWNRHHVERVEIIMKETVDAEGRTSFYEEYGVIRDVLQNHLTEVLTLVAMELPHNVSSAEAVLRHKLQVFQALRGLQRGSAVVGQYQSYSEQVRRELQKPDSFHSLTPTFAGVLVHIDNLRWEGVPFILMSGKALDERVGYARILFKNQACCVQSEKHWAAAQSQCLPRQLVFHIGHGDLGSPAVLVSRNLFRPSLPSSWKEMEGPPGLRLFGSPLSDYYAYSPVRERDAHSVLLSHIFHGRKNFFITTENLLASWNFWTPLLESLAHKAPRLYPGGAENGRLLDFEFSSGRLFFSQQQPEQLVPGPGPAPMPSDFQVLRAKYRESPLVSAWSEELISKLANDIEATAVRAVRRFGQFHLALSGGSSPVALFQQLATAHYGFPWAHTHLWLVDERCVPLSDPESNFQGLQAHLLQHVRIPYYNIHPMPVHLQQRLCAEEDQGAQIYAREISALVANSSFDLVLLGMGADGHTASLFPQSPTGLDGEQLVVLTTSPSQPHRRMSLSLPLINRAKKVAVLVMGRMKREITTLVSRVGHEPKKWPISGVLPHSGQLVWYMDYDAFLG,soluble
2,MRTVVPFDPRDPKSRLAEFFADAEERRGFAYAMLADVLGAVRDAGGDPVVVATAPVSRPVDAPVTVDDRALSTAVAAAIADGPLPTAVVMADLALATPDAIRRVFAASGDVVLAPGSGGGTNVVLARTADVPVSYHGVSFRDHVTAAERAGLTVTTVDSFRLAADVDDASDLVDVFVHNTRRTREWLIAGGWRLAVDDGTPTVVREPND,not soluble
3,GSYAEGQRKRRNTIHEFKKSAKTTLIKIDPALKIKTKKVNTADQCANRCTRNKGLPFTCKAFVFDKARKQCLWFPFNSMSSGVKKEFGHEFDLYENKDYIRNCIIGEGESYKGTVSITKSGIKCQPWSSMIPHEHSFLPSSYRGKDLQENYCRNPRGEEGGPWCFTSNPEVRYEVCDIPQCSEVECMTANGESYRGLMDHTESGKICQRWDHQTPHRHKFLPERYPDKGFDDNYCRNPDGQPRPWCYTLDPHTRWEYCAIKTCA,soluble
4,MTSNKQLINERDHAESALADMYFAATGDEPEWSNWFGFSDAVDAVVDRIADLEAKQPSPVVPEGLVKAVRFYEQVKRENPPVETEAWKDAIDWVLKESCQAVNIDTNGD,soluble
5,MSLTLRQAIDLAAALLAEAGVDSARCDAEQLAAHLAGTDRGRLPLFEPPGDEFFGRYRDIVTARARRVPLQHLIGTVSFGPVVLHVGPGVFVPRPETEAILAWATAQSLPARPLIVDACTGSGALAVALAQHRANLGLKARIIGIDDSDCALDYARRNAAGTPVELVRADVTTPRLLPELDGQVDLMVSNPPYIPDAAVLEPEVAQHDPHHALFGGPDGMTVISAVVGLAGRWLRPGGLFAVEHDDTTSSSTVDLVSSTKLFVDVQARKDLAGRPRFVTAMRWGHLPLAGENGAIDPRQRRCRAKREGHHHHHH,soluble
6,GVKLQQSGPEVVKPGASVKISCKASGYSFTNFYIHWVKQRPGQGLEWIGWIFHGSDNTEYNEKFKDKATLTADTSSSTAYMQLSSLTSEDSAVYFCARWGPHWYFDVWGQGTTVTVSSAKTTPPSVYPLAPGNSMVTLGCLVKGYFPEPVTVTWNSGSLSSGVHTFPAVLQSDLYTLSSSVTVPSSTWPSETVTCNVAHPASSTKVDKKIAAAG,soluble
7,MTGTVYKLFGNRLLNARNQLDKNLLEMAMQMVYGKDMVTKSGDILIDIQLNKDGSLQSKHYTLDVGEVINSYNIDPLCECFKY,not soluble
8,MSLPFPTIPPIAGVEIATGRAGFYKHEREDLLLMRFAEGTSAAGVFTRHGVGSAPVDWCKRQLAATGGADVRALVVNAGCANSFTGKPGADAVRRVATAVGKRFDCRQRDVMMASTGVIGVILDDSKITARLPEVESRLKADAWAEAGRAIMTTDTFPKGAYATAVIDGHEVKIAGIAKGSGMIAPDMATMLAFVATDAAIAPAALQTLVSLYTRTTFNCVTVDGDRSTNDTLLLFATGQSGAPKIHRAGDKRLADFREKLEGVLLDLALQLVKDGEGATKFVKITVNGAESPASARKIARTIAESPLVKTAFAGEDANWGRIVMAVGRADEPVAREKISVKFGDLYAARDGLISAEYDEAKMSAYVKNQAFEVSVDVGVGRGSATVWTCDLTKQYVAINGDYRSEGHHHHHH,not soluble
9,AIANSLVRRSAQQLSLWRTYCIKHNASEAASPGRNAGRPNYEEFIGRHQRQAQCSIVVQVSSEKSYEELYNYCSSFGSIMGAHHYCVRQDETLHYILLEYATSDEAAAAIGAGVTNGELSGVPVRSPFLWFRAAGGGRRSPKLVANTAPALLSLDGTRQVDQRHLLGLLRGAADIEEQVQQLYEHTRLNELGIRMRFLAALQVQQAIAGMFPAAQAQPFGSSVNGFGRMGCDLDLILRFDSDMGAKIPLEAAVPSRLVYHTKENLSNGRSQTQRHMECFGDMLHLFLPGVCHVRRILQARVPIIKYHHEHLDLEVDLSMSNLTGFYMSELLYMFGEMDPRVRPLTFTIRRWAQTCGLTNPSPGRWISNFSLTCLVMFFLQQLRQPILPTIGALAKAAEPGDSRVTEDGINCTFTRNVDRLGFRSRNQSSLSELLLQFFEFYSQFDFHNRAISLNEGKPLSKPDHSAMYIVNPLEQLLNVSKNVSLEECERLRIEVRNAAWVLESEVENASVPEGDGQELSCGLLNLFKHPEKAVIRPNMFFKPRMVEVSDLFEQKEAGATSSSTPPTPAITYKSASVRQQVQSIKAATRSELKQLRGSGSSVPTSSPNNRRRS,soluble
10,MSLYQAIVFFDLDSTLFDDNKHVLPASVAAIHEMQQHHILPVIATGRNIFEIQYVLDGTGIDSVVGANGSYVQYQGQRLAAAVIAPELLTAVTSFAQRQHDPIAYYTSQGFRLSQANADTTENFQLLRLHPIVDPAWYATHQINFLNVFNRDHDQLYQEKFSGQLTFVRNNPRCLDTMVNGVTKQSGIRTLIQQAGLQGIKTYAFGDGYNDLQMFDEVDVPISMGNGVAAAKEKAAYVTTTNTTDGIVRGLRHFGLIQEGHHHHHH,soluble
11,MGSDKIHHHHHHMNKKPLVSVYIPTHNRAELLSNAVKSVINQTYKNIEIIICNDGSGDNTDDVVNKLQKEYKDIPFVYLKNDSPMGACFSRNRCIAAASGYYLTGLDDDDYFLPNRIESLIKVCNERKIDLVCSNLIFKDGNKLKRGKNNSGVITSIDMGYENLVGNQLLTRLSYFEDVGGFDTNFPAWQDYDLWYRIIMKFGPCIKTNEATYVMDVENDRKRISTSSKAHIGYRSFIEKHSETLSEEMKSSLFIRDLINRNKKIPLKTLLSSGRKVASFKHNMRLCFPVVNSIAAFVREIKK,not soluble
12,MGSSHHHHHHSSGLVPRGSHMSQSTYSLEQLADFLKVEFQGNGATLLSGVEEIEEAKTAHITFLDNEKYAKHLKSSEAGAIIISRTQFQKYRDLNKNFLITSESPSLVFQKCLELFITPVDSGFPGIHPTAVIHPTAIIEDHVCIEPYAVVCQHAHVGSACHIGSGSVIGAYSTVGEHSYIHPRVVIRERVSIGKRVIIQPGAVIGSCGFGYVTSAFGQHKHLKHLGKVIIEDDVEIGANTTIDRGRFKHSVVREGSKIDNLVQIAHQVEVGQHSMIVAQAGIAGSTKIGNHVIIGGQAGITGHICIADHVIMMAQTGVTKSITSPGIYGGAPARPYQEIHRQVAKVRNLPRLEERIAALEKLVQKLEALSEQH,soluble
13,GSPAAAPPTLPPYFMKGSIIQLANGELKKVEDLKTEDFIQSAEISNDLKIDSSTVERIEDSHSPGVAVIQFAVGEHRAQVSVEVLVEYPFFVFGQGWSSCCPERTSQLFDLPCSKLSVGDVCISLTLKNLKNG,soluble
14,MTEQERLELEAAAFRRLVAHLDSRKDVQNIDLMNLSGFCRNCLSKWYKAAADEKHIDITLDDAREVVYGMPYSEWKANYQKEASAEQQAAFVKESKHD,soluble
15,MKGRTMNKPFITQAQLALYKYQPSSKYFGQSMAVIAQSEFVEFAKINKSENVIDCFSFFWNRRIKHDIWLISFSDNSEMVIKESLKDGHKIYKFEFCEIVDNCNFDDVFV,not soluble
16,MGSDKIHHHHHHMMSVQTTKLDAVPLGDRAPILEMRGISQIFPGVKALDGVNIALYPGEVTALIGENGAGKSTLVKILTGIYRPNEGEIVIDGSPVTFADAQAAIDAGVTAIHQETVLFDELSVAENIFLGHAPKTRFGFIDWNGINTKARALMDRLESKIDPTIRLKDLSIAQRHLVAIARALSVEARIVIMDEPTAALSRKEIDDLFRIVEGLKRDGKAILFISHKFDEVYEIAENYAVFRDGKMVGAGRLQSTPQDEIVRLMVGRDVHDAFPKIDVSIGAAVLSVSRYCHDTEFRDISFDLRKGEILGFYGLIGAGRSELCQSLFGITHPASGTVTLEGRALDIRSPADAIAAGIVYVPEERGRHGLALQMPIYQNMSLPSLARVSARGFLKVVNELALARHYAERLDLRAAALSVPVGTLSGGNQQKVVIGKWLATKPKVIILDEPTKGIDIGSKAAVHGFISELAAEGLSIIMISSELPEILGMSDRVMVMREGLQAGIFEREALTPEVLVRAATGNA,not soluble
17,MAATTKKPEIAAQHKPQTAAAAVASPATGAQPGHYVDPAVASAAGVNNVPAQHQAPGSPAQGYGAAADIGGLTTQPTAISAGTSSIYSTATHSGSAAAQGMAAAQGGSAQKIIPAVSSVYSAPIQPSQPQPVAAPVAVPVAAQVPPEQHSENRQPAAVPVPQPEQRAAAQPATNAGATVEGREGEGRSLTLAAFFAGAAKKRLPKMIESGTAGNTEVAALSGAADGSMGIALSGRSMMSEEFDDAHLDEEDDQPNGLMKLASLSGLTRVSPNGLFLQTDHVEVGCFKPELVRMIKDVERHYNSPAIVTSGYRPPKGIRQGSKHYTCDAADIQIKGVSKWELATYLRSLPDRGGVGTYCHTESVHMDTGEARDWNWRCRRTAARK,not soluble
18,MTTRLIVKNLPSTCTEQQLRKFFEKYGQISDASLKYTKEGKFRGFAFVGFLDEGSASNALAKSNQTFFNSKKLTVEECRPFGDANKPRAWSKYAKDSSAYKRTHGEKEEANPGKSDETEEPAPKKQKDDAKFDQFLEAKGVVVEKEVKLSKDKSAEAKKLMAELMDGIGGDTSLSLIFSGLPSSAKGKNIKEWLNPIRVKAMKIARNEDVAAAFVTFNRPPDVRRALQKDGQFLGGFKIGIEKIETPEPEHEVIEEHGASLESRDKEEETVREKILETGRLFLRNLPYATKEDDLQFLFKKYGEVSEVQVVIDKKTGACKGFAIVEFVFPEAAVAAYSALDGYVFKGRMMHILPGDEKRTKEGEEESEVVPDDPDNPLKAEAKKEKKKKSFKEEKDEQKKASAGKTAHSWNALFLGANAIADTLAQRLNVKKSDLLTSDQGESAGVRLALAETRLVRETRDFFLENGVKLDAFSKPAEKRSDTVMLAKNLPAGVESEELQRMFEKFGDCTKVLMPTEGGVSALVIMGNPVDAKKAFRALAYSRFRSQPLYLEWAPYDVMGATAPPAEDKTAEVADKPKLSKREMTYEEKRKERKNRQQGITEEEKDDGEVIEEEEKPKEVEAEDKKKSSKKQSEKEIESGSTLFVKNLAFDTTDGSLEFLFRKRYGDLVKSAQISKKLNPAEPTKPLSMGFGFVQFYTAFDAKTALKDMQGELLDGHSLELKISHRENADKGALKRKEVKQKEQGECTKLLVRNLPFEASVKEVETLFETFGAVKTIRIPKKPGQKQQHRGFGFVDFISADEAHRAFDSLVHSTHLYGRRLVLEWAKDDETVEELREKTAEKFAGNKKGVKKSKAQTEEFQQQLQIADDEKD,not soluble
